# Laboratory results from PMC8319368 (The Journal of Biological Chemistry, 2021).
# T1: Saccharomyces cerevisiae Pol32, PCNA-binding subunit of DNA polymerase delta (ScPol32) (Saccharomyces cerevisiae, UniProt P47110 1-350)
# T1 sequence: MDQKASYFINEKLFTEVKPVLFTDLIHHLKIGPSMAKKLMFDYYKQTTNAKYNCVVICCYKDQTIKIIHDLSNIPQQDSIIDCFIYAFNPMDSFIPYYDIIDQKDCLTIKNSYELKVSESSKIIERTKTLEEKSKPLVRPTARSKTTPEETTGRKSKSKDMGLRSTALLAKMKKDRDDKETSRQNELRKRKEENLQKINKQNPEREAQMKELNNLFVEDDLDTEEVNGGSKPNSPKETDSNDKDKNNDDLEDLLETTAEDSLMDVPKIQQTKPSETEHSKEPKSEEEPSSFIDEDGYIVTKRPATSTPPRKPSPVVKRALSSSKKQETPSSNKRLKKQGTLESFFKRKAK
# T2: Saccharomyces cerevisiae Pol32, PCNA-binding subunit of DNA polymerase delta (ScPol32) (Saccharomyces cerevisiae), P47110
# T2 chain: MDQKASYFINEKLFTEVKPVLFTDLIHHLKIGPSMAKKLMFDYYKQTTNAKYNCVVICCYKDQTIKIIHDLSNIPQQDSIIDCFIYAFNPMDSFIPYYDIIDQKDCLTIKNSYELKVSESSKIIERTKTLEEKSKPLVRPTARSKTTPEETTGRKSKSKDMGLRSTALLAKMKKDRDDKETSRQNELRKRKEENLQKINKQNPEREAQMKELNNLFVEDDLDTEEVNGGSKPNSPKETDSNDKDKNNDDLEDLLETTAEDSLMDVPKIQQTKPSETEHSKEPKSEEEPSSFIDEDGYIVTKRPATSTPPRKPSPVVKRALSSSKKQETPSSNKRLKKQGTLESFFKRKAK
# Legend:
# [1] = target: T1, Saccharomyces cerevisiae Pol32, …; assay: ITC
# native gel or EMSA = target: the molecule itself; assay: native gel or EMSA
# [2] = target: T2, Saccharomyces cerevisiae Pol32, …; assay: ITC; conditions: remark: other sources report otherwise
Kd [1] [µM],dH [1] [kcal/mol],stoichiometry N [1],Kd [2] [µM],dH [2] [kcal/mol],stoichiometry N [2],Binder,stoichiometry N (native gel or EMSA)
4.28 ± 0.325,-1.24 ± 0.0554,1.06 ± 0.035,–,–,–,"Neurospora crassa proliferating cell nuclear antigen (NcPCNA), GST tag cleaved (natural protein) MLEARLEQASILKKVVDAIKDLVQDCNFDCNDSGIALQAMDNSHVALVSMMLKTETFSPFRCDRNIALGVNLTSLTKVLRAAQNEDILTLKAEDAPDVLNLVFESSENDRISEYDLKLMDIDQEHLGIPDTEYAATISMPSSEFKRITTDLMAMSESVNIEASKDGVKFSCQGDIGNGSITLRQHTNVDKPSENIEIELSEPVSLTFSLKYLVNFCKASALSSTVKICLSNEVPLLVEYNISASSYLRFYLAPKIGDEE",3
–,–,–,2.75,-1.48,1.05,"Saccharomyces cerevisiae PCNA (ScPCNA), wild type, P15873 1-258 (natural protein) MLEAKFEEASLFKRIIDGFKDCVQLVNFQCKEDGIIAQAVDDSRVLLVSLEIGVEAFQEYRCDHPVTLGMDLTSLSKILRCGNNTDTLTLIADNTPDSIILLFEDTKKDRIAEYSLKLMDIDADFLKIEELQYDSTLSLPSSEFSKIVRDLSQLSDSINIMITKETIKFVADGDIGSGSVIIKPFVDMEHPETSIKLEMDQPVDLTFGAKYLLDIIKGSSLSDRVGIRLSSEAPALFQFDLKSGFLQFFLAPKFNDEE",–
